Results on five molecules are retold here after paper PMC8514580, “Insight into the interaction between the RNA helicase CGH-1 and EDC-3 and its implications” (Scientific Reports, 2021).

Test [1] has as its target CAR-1 184-214 (Caenorhabditis elegans) (UniProt Q9XW17). The test is described as follows: ITC. The settings on record: cited from earlier work.
The next test has as its target CGH-1_248-420^F355A (Caenorhabditis elegans, UniProt Q95YF3, F355A). Details: the cDNA fragments encoding CGH-1 RecA2 (residues 248–420); made in house; host or cells: E. coli Gold (DE3). The following applies: ITC, CGH-1 F355A vs WT; cited from earlier work. The source says:
We recently identified a highly conserved FDF (Phe-Asp-Phe) motif between beta-strand 12 and alpha-helix 13 in CGH-1 RecA2 domain but the function is currently unclear (Fig. 1B)[17]. Mechanistically, Phe355 in CGH-1 may mediate hydrophobic interaction with Thr266 in the TFG motif of CAR-1 and a mutation of Phe355 to Ala (F355A) in CGH-1 decreased the binding affinity by a factor of approximate 5 as measured by ITC assay. Since PATR-1N-terminus has also a TFG motif, we hypothesize that PATR-1 may also interact with CGH-1 via similar binding mechanism (Supplementary Fig. S3B and C). Striking ...
In general terms: In ITC the heat of successive injections is recorded.

Test [2] concerns 4A mutant of CGH-1_248–420. Briefly: GST-pulldown of CGH-1_248–420 4A mutant. The format is binding, C. elegans. The settings on record: PBS, ~100 μg GST protein, ~50 μg CGH-1 4A, 2 h, 12% SDS-PAGE. Here is the method: (§1) The cDNA encoding a fragment of C. elegans EDC-3 (residues 230–566) plus a C-terminal His6 tag was synthesized by Sangon Biotech (Shanghai, China) Co., Ltd. The DNA fragment was then cloned into a pGEX-4T-1 expression vector using restriction enzymes BamHI and XhoI, and finally confirmed by DNA sequencing.
(§2) To test if GST-tagged EDC-3 can pulldown CGH-1 protein, about 100 μg protein, GST alone or GST-EDC-3_230–566, was incubated with GST resin (GE Healthcare) in PBS for 1 h. The resin was then washed three times with the same buffer. Subsequently, the resin was incubated with ~ 50 μg recombinant CGH-1_248–420 protein or its 4A mutant in the same buffer for 2 h. The resin was then washed five times using the same buffer. The captured proteins in resin were finally heated and analyzed using 12% SDS-PAGE.

The test system of a further test is CGH-1_248–420. Briefly: GST-pulldown of CGH-1_248–420 WT. The format is binding, C. elegans. The settings on record: PBS, ~100 μg GST protein, ~50 μg CGH-1, 2 h, 12% SDS-PAGE. The method, then:
as §1, §2

A further test has as its system human HA-tagged DDX6. The following applies: Co-immunoprecipitation, YFP-tagged PATL1 mutants; cited from earlier work.

“Also recorded” adds a separate entry of the source.

Chain of CGH-1_248-420^F355A (Q95YF3 248-420 F355A): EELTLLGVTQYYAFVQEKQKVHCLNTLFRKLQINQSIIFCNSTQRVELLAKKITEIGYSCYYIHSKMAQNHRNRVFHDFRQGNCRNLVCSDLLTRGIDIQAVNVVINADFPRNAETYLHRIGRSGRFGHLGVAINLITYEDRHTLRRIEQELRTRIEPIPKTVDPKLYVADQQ

As to CGH-1 248-420 (from UniProt Q95YF3), the Kd in test [1] is 43 µM.

B1: CAR-1: CAR-1, construct of ref 17; TFG motif interacts with Phe355 of CGH-1 (protein, UniProt Q9XW17 1-340, looked up)
Protein LSM14 homolog car-1: MSNQTPYIGSKISLISKLDIRYEGILYTVDTNDSTIALAKVRSFGTEKRPTANPVAARDDVYEYIIFKASDIKDLIVCDTPKMANIGGGLPYDPAIISVSSRSAPASDGAPAASAGSSRAGTPSRNSPLGQIIQNQRPGRGGYQQNFQANRGYNNYRGGFAGGYNNQRGHNNYGVPRVNHREKLKFESDFDFEKANEKFQEVLVDNLEKLNIEDKAEPEVEEKKDAAFYDKKTSFFDNISCESLEKAEGKTGRPDWKKERETNQETFGHNAVRSLNYRRGFGGRGRGGNRGYGGYNNGYQHQHQHRGGYNGGYRQNNGGYRRGGYAPRDNQGNTAAAAEQ
Consider B1, for which, in the test with CGH-1_248-420^F355A, the “decrease of binding affinity, factor vs WT” value is given as around 5.

B2: GST-EDC-3_230–566: GST-tagged fragment of C. elegans EDC-3 (residues 230–566) plus a C-terminal His6 tag (protein)
chain: RNKNDLADPIDFDLDSDFDFAENLKLFEKDENDDQYYETVEKFKCSQNFAHYENIIDDENRVTSWTNLKARSELVKTGTTPQTSEKNNFRVTAVSFEKSIIGDPIPAISLNEKKEFLNECRVSLGEAVYDTIVADRIFQWVSEVQNSYGDAHGTVVLLASSANSVRSIRRLLTHFDKRRYNCHLFGKYPGEIFDHVNVVTDVKMLPREVPIICILSPVVNDDVECWLRAQSNGASSHYVCIENVPSVLEPSRCHLLQFGCATNGLRHAERKVQTINRGGITFEHLCQGKMHEETSSILVDSAIADLGSPSNWFDNTSSKFISTAFSTTFLVRLSQSN
modifications: left off: GST, end not stated, kept | His6, C-terminal, state not stated
notes: GST-tagged fragment of C. elegans EDC-3 (residues 230–566) plus a C-terminal His6 tag
Take B2: the “amount of CGH-1 4A bound compared with wild-type” value in test [2] was “less amount”. In the test on CGH-1_248–420, the “interaction with CGH-1_248–420” value is recorded as “can interact with CGH-1_248–420; also recorded: binds to CGH-1 RecA2 domain”.

B3: YFP-tagged PATL1 W46A: substitution of Trp46 to Ala in the YFP-tagged PATL1 (protein, UniProt Q86TB9 1-770, looked up, variant W46A)
Protein PAT1 homolog 1: MFRYESLEDCPLDEDEDAFQGLGEEDEEIDQFNDDTFGSGAVDDDAQEAHERLAELEEKLPVAVNEQTGNGERDEMDLLGDHEENLAERLSKMVIENELEDPAIMRAVQTRPVLQPQPGSLNSSIWDGSEVLRRIRGPLLAQEMPTVSVLEYALPQRPPQGPEDDRDLSERALPRRSTSPIIGSPPVRAVPIGTPPKQMAVPSFTQQILCPKPVHVRPPMPPRYPAPYGERMSPNQLCSVPNSSLLGHPFPPSVPPVLSPLQRAQLLGGAQLQPGRMSPSQFARVPGFVGSPLAAMNPKLLQGRVGQMLPPAPGFRAFFSAPPSATPPPQQHPPGPGPHLQNLRSQAPMFRPDTTHLHPQHRRLLHQRQQQNRSQHRNLNGAGDRGSHRSSHQDHLRKDPYANLMLQREKDWVSKIQMMQLQSTDPYLDDFYYQNYFEKLEKLSAAEEIQGDGPKKERTKLITPQVAKLEHAYKPVQFEGSLGKLTVSSVNNPRKMIDAVVTSRSEDDETKEKQVRDKRRKTLVIIEKTYSLLLDVEDYERRYLLSLEEERPALMDDRKHKICSMYDNLRGKLPGQERPSDDHFVQIMCIRKGKRMVARILPFLSTEQAADILMTTARNLPFLIKKDAQDEVLPCLLSPFSLLLYHLPSVSITSLLRQLMNLPQSAATPALSNPHLTAVLQNKFGLSLLLILLSRGEDLQSSDPATESTQNNQWTEVMFMATRELLRIPQAALAKPISIPTNLVSLFSRYVDRQKLNLLETKLQLVQGIR
modifications: YFP tag
Take B3: the “interaction with DDX6” value in the test on human HA-tagged DDX6 is reported as “impaired the interaction”.

B4: YFP-tagged PATL1 W46D: substitution of Trp46 to Asp in the YFP-tagged PATL1 (protein, UniProt Q86TB9 1-770, looked up, variant W46D)
Protein PAT1 homolog 1: MFRYESLEDCPLDEDEDAFQGLGEEDEEIDQFNDDTFGSGAVDDDDQEAHERLAELEEKLPVAVNEQTGNGERDEMDLLGDHEENLAERLSKMVIENELEDPAIMRAVQTRPVLQPQPGSLNSSIWDGSEVLRRIRGPLLAQEMPTVSVLEYALPQRPPQGPEDDRDLSERALPRRSTSPIIGSPPVRAVPIGTPPKQMAVPSFTQQILCPKPVHVRPPMPPRYPAPYGERMSPNQLCSVPNSSLLGHPFPPSVPPVLSPLQRAQLLGGAQLQPGRMSPSQFARVPGFVGSPLAAMNPKLLQGRVGQMLPPAPGFRAFFSAPPSATPPPQQHPPGPGPHLQNLRSQAPMFRPDTTHLHPQHRRLLHQRQQQNRSQHRNLNGAGDRGSHRSSHQDHLRKDPYANLMLQREKDWVSKIQMMQLQSTDPYLDDFYYQNYFEKLEKLSAAEEIQGDGPKKERTKLITPQVAKLEHAYKPVQFEGSLGKLTVSSVNNPRKMIDAVVTSRSEDDETKEKQVRDKRRKTLVIIEKTYSLLLDVEDYERRYLLSLEEERPALMDDRKHKICSMYDNLRGKLPGQERPSDDHFVQIMCIRKGKRMVARILPFLSTEQAADILMTTARNLPFLIKKDAQDEVLPCLLSPFSLLLYHLPSVSITSLLRQLMNLPQSAATPALSNPHLTAVLQNKFGLSLLLILLSRGEDLQSSDPATESTQNNQWTEVMFMATRELLRIPQAALAKPISIPTNLVSLFSRYVDRQKLNLLETKLQLVQGIR
modifications: YFP tag
B4: in the test with human HA-tagged DDX6, the “interaction with DDX6” value is “impaired the interaction”.

As usually defined, the Kd is the concentration at which binding is half-saturated.
